Results published in the DeepSol protein solubility set.

Assay: soluble on expression in E. coli; label from the status in PepcDB or PDB records

Sequence | soluble on expression in E. coli
MKLLLLIFVPFVTCGLTCMDFMIDCPRIVYYCDETYVQNQCQFSCGICKQDPGVCGDTYFDCDMYDTKCNSPSFQRQCAGTCGLCPGACEDIWDGCSHFLAPCSDDIKSLCPIKCGLCNSTTTPMILTTITPVDPRCVDAGNQCANYSPPCSDDVKIFCPATCGSCSNGTTGVPLVLTTLTPELTTVTVEPITSTLKPTTTTITPTTTTKLPTTTTKKLPPTTPKPPCKDSSPNCAGWAKNGFCTNTFYPPEKRKEYCGKTCRMC | not soluble
LYVFDMDETLINADCAMIWNAFLVEKGIATQPNFIEEDQRLMALYAEGKMDMEDYLEFCMAPLADMPIAHVLMLVEECVEHHILPKQFEQSKTLIAQLDRDDIDMVIISASVTFLVEAVGRRLGIPVALGIDLVEKHGSYSAEIAGVPSYREGKVIRLKAWLDAQPESYSEVHFYTDSINDLPLCEYADYAYLVNPCPQLKARAD | not soluble
MNLFEYKLSVVRQVMDKYEVAEEAKFISGLSKGSMVNALSRKKKLPNKEAKFTRYVIYTVDVERIIDMMEEPYRTVIKKRYYDASLDTVKKDFGLQNKREAYFLVKKSVNKFYDLLENYWK | not soluble
MSEFFIQEQQLGKVTRTIVKDQAGRSLFLLVGRWGTRGDALSLYAMNGEILASIKQVSWTFGTRFELYQRFEKVGTLRKLFNLNADFYYVQGLHWAVVGDIKAHQYSIYQVHKKIMSMDKTMLCTGDYFVLTVANDEDAPLCICIAAVLDYWLYNKKKQKTSDDFGLDFDPLTD | not soluble
MELKYVIPNMEKTFGQLEYAGEGNIEQRRINGRPTILSRSYNLYSTIQRADDIVVILPSEAGEKHFESDEKVKLINPHITAEGYKIGNRGFTNYIMHADDMVKALEHHHHHH | not soluble
GMPALITYRTTVQEDWVDYNGHLRDAFYLLIFSYATDALMDRIGLDADSRGQSGNSLFTLEAHINYLHEVKLGTEVWVQTQILGFDRKRLHVYHSLHRAGFDEVLAASEQMLLHVDLAGPQSAPFGHTTVCRLNHLVEQQEGAQAPQYMGRTIKLPA | soluble
MSLRDYAEIAASGILRAVTEYNSISFYADGDTVSGFHYELLHAFAHSKGLKPEITPEMSFSKRLEDVQKGTYDILANSTVVTTEYKDSLLFTRPIILNKQVLVQRKPEKENDSLYIHSQLELARKTLHLVKNSPAILRIHNLSNEIGDTIYIKEVEKYGQEQLLAMVAHGDIDYAVCDESIAKASINDFPQLDIETAISFSQFYSWGVSKHSPILLDSLNSWLNDYVKTPAFKLLRKKYYNNEGHHHHHH | soluble
MSGSTESKKQPRRRFIGRKSGNSNNDKLTTVAENGNEIIHKQKSRIALGRSVNHVPEDILNDKELNEAIKLLPSNYNFEIHKTVWNIRKYNAKRIALQMPEGLLIYSLIISDILEQFCGVETLVMGDVSYGACCIDDFTARALDCDFIVHYAHSCLVPIDVTKIKVLYVFVTINIQEDHIIKTLQKNFPKGSRIATFGTIQFNPAVHSVRDKLLNDEEHMLYIIPPQIKPLSRGEVLGCTSERLDKEQYDAMVFIGDGRFHLESAMIHNPEIPAFKYDPYNRKFTREGYDQKQLVEVRAEAIEVARKGKVFGLILGALGRQGNLNTVKNLEKNLIAAGKTVVKIILSEVFPQKLAMFDQIDVFVQVACPRLSIDWGYAFNKPLLTPYEASVLLKKDVMFSEKYYPMDYYEAKGYGRGETPKHAIE | soluble
GPGSMPSITTAKREYEERLVDCLTKYSCVLFVGMDNVRSQQVHDVRRALRGKAEFMMGKKTLQAKIVEKRAQAKDASAEAKHFNDQCEEYNLLSGNTGLIFTNNAVQEITSVLDAHRVKAPARVGAISPCDVIVPAGSTGMEPTQTSFFQALNIATKIAKGMVEIVTEKKVLSVGDKVDNSTATLLQKLNISPFYYQVNVLSVWDRGVLFTREDLMMTEDMVEKMLMDGLS | not soluble
MGSDKIHHHHHHMPIDTVGEQISLGKTSNEQANHIFLFLEVFKQEGGIQSYVKDIFRAYSGLSQGYQAEVLLLRDSPECSNPFTSNNLKFHYFQNPSPQIGRIKMAGVLLKFLLQRRPQMVFCGHIKLAVLVQTLCQPLGIPYTILTYGKEFWEPLKNQERRALAAAKEIWTISRYSRDRACAVNGIDPHKVKMLPCAIDGNKFTPGAKQPELIDKYGLTDAKVLMTVARLWSGDIYKGVDVTIRALPKIIQSFPEVKYLVIGRGDDQPRLAQLAQDLGVSDRVIFAGFVPTEQLMAHYRLADAYIMPSQEGFGIVYLEAMACGVPVLSGDDDGSADPLQDGKLGWRVPHRNPEAVAAACLEILQGDDQRCDGEWLREQAIALFGMDALQKQLLSLVHTQN | not soluble
MGDFREVLFYHSETKHYPYRFARSLGYLDWENQPNPFRFWEGTERLDLPLLKDPSHPYEALYDYGLVNTEEFNVKSLSKFLELALGLSAWKAIPGSRWSVRMNPSSGNLHPTECYVIIPHLGGLQGVFHYNPFLHALEKRADIPYELSQKIKDFFGTEGFILILTSIPWRESWKYGERAYRYCLLDTGHAIGSVRFSANLKGWKVKYLNALSDKDLEILLGFDRVQWVEGEEEFPELALFVFPKEVQDVPRTIPESIINEFKKLNFYGRPNVLSKERVIWEIIYRAIKETEKPRTEEFRVIYGNPPILNLVPSYMSAEEVIRKRRSGMAYDGKTYILRELFIHALDKTLPRDNYSPFDVEIGLPFVNLFIFVNRVENLPKGLYCFVRNEELLKDLKEITSSEFLWEKVFEDFPLYLLKTGDFREVAGFVACAQDIASDSAFSLGMISLFEPVLREEPWFYRNLHWEAGLIGQVLYLEATAHNLNGTGIGCFFDDAMHEVLGISDKTFQDLYHFTFGKAVEDPRIQTIEPYYHLKRERR | not soluble
MGVMKGIEFSESKLKEILDQLPIEAQSAFAASCAQRIFTCYVEYARVAKSKKVDLDAYSEAISYVWNAVIAGNHDAIILNGLLERCMAVLPSEEDAWESGTPYAEDAAAAIIYSLRSLASGCPQEAIWAAKRVYEAVDNFVVNTYNVNTNATDGEKFILDHPIVSNELSRQLRDLNEIINSKRDSESLKKTIKIIMERSKSESNDLFSEAT | not soluble
MAHHHHHHMDIIKNETKEMDMYNPSVSINFEKGILKNSCDTPKDTKLEKLKREYNILTSSYDYNSGNKKERRNIWKEKVKHNIASKNKKKMVKIKKEENNNELENKKGENLLMYVNDKNSNLNVYIDENDLFEETPNISSNTLLSYISNIFLRKKNIYEIKKCDFIKEVNTDESLKRNFIPPVDILYDDKKVLFLFFISGNLQNFHVTSNNNYLTISGEKIPYQVQDHTSYFSHEIKKGYFIRTYCFMKTFDKEKIYYEQNNGVIKIYVYICDDNNI | not soluble
MAHHHHHHMSLCHTASRWRSVQCTGDIPPGRIGHTLCANGTETKIFLYGGVNDRNESISNYLDDLYVFDVNKKHWSKIEMTGQVQCSRAFHSAVYYEGKIYIFGGCNGRGRFNKLFSTSEEGLCAQIEASGQPPSTRYCHSAVLFERCMYIFAGKCGGRNSNRRLSDLYLFDFQTNTWMECPQHGDPPTPRSAHAAFTCGRNMIMFGGRSAQGECCEDMYMYNYDTCMWRPIESPNSGPLFGRARNSVVVHHGKVVVFGGWNGKKKLNDLFTYHVDSNTFEVMHEPDENCPSRRECHVAVVCKNTMVVFGGRFRGEFMSDTAELDLGPKTLKQNCRDWILRSSFKELHSNRGERLPLRLQQFIESWRQLICRVEKIEPRTPLQDSAPNEALSSDSNSQHG | not soluble
MRGSHHHHHHTDPALRANEFSILCRVLGSLYYRQPQDPLLVPLFTLIREGKLAANWPLEQDELLTRLQKSCDMTQVSADYNALFIGDECAVPPYRSAWVEGATEAEVRAFLSERGMPLADTPADHIGTLLLAASWLEDQSTEDESEALETLFSEYLLPWCGAFLGKVEAHATTPFWRTMAPLTRDAISAMWDELEEDSEEGLCGR | soluble
MEVGMIPRVYLGHEWFGAERILSEYQVPEDCGAQVLFLGIPRNAPEDGGNIEALEYEAYPEMAIKEMEKIRQETIEKFGVKEVFIHHRLGLVKIGEPSFLVLAVGGHREETFKACRYAVDETKKRVPIWKKEIFKEGKGEWVLGEKKNASGQTK | soluble
MSLNEIDNKLFLVYVGGTAPGANIELHDIRFVVGPSMEETYPAIRKGWFGTQKGLHLDSFVHLHHVDGYRIHLTSEAHEKPEEKRLYFVNFGGYFPNKLAEYHDFTVVVADSPQSAKQLARAQFSKAGLADAEQIHKDDLLAVDDCLCVDLVDNHYVTLEFDGEQQPLVPDWKGYQPLPEGHHHHHH | soluble
